Laboratory results taken from patent publication US20250263504A1 (Takeda / Millennium, published 2025).

B1: 620I-X0179-C01 (bispecific antibody, human IgG1, kappa)
heavy: not shown
light: DIQMTQSPSTLSASVGDRVTITCRASQSISSWLAWYQQKPGKAPKLLIYKASTLESGVPSRFSGSGSGTEFTLTISSLQPDDFATYYCQQYNTYWTFGQGTKVEIKRTVAAPSVFIFPPSDEQLKSGTASVVCLLNNFYPREAKVQWKVDNALQSGNSQESVTEQDSKDSTYSLSSTLTLSKADYEKHKVYACEVTHQGLSSPVTKSFNRGEC
notes: 620I-X0177-A01 with IgG C-terminal Lys changed to Gly; also called 620I-R0052-C01; 620I-X179-C01
B2: 620I-X0179-E05 (bispecific antibody, human IgG1, kappa)
heavy: not shown
light: B1 light
notes: 620I-X0177-C01 with IgG C-terminal Lys deleted; also called 620I-R0052-E01
B3: 620I-X0180-G03 (bispecific antibody, human IgG1, kappa)
heavy: not shown
light: B1 light
notes: 620I-X0177-E01 with IgG C-terminal Lys changed to Gly; also called 620I-R0052-G03; 620I-X180-G03
B4: 620I-X0180-A05 (bispecific antibody, human IgG1, kappa)
heavy: not shown
light: B1 light
notes: 620I-X0177-G01 with IgG C-terminal Lys deleted; also called 620I-R0052-A03; 620I-X180-A05
B5: 620I-X0179-G05 (bispecific antibody, human IgG1, kappa)
heavy: not shown
light: B1 light
notes: 620I-X0177-C01 with IgG C-terminal Lys changed to Gly; also called 620I-R0052-G01; 620I-X179-G05
B6: 620I-X0180-C11 (bispecific antibody, human IgG1, kappa)
heavy: not shown
light: B1 light
notes: 620I-X0177-G01 with IgG C-terminal Lys changed to Gly; also called 620I-R0052-C03; 620I-X180-C11
B7: 620I-X0179-A09 (bispecific antibody, human IgG1, kappa)
heavy: not shown
light: B1 light
notes: 620I-X0177-A01 with IgG C-terminal Lys deleted; also called 620I-R0052-A01; 620I-X179-A09
B8: 620I-X0180-E07 (bispecific antibody, human IgG1, kappa)
heavy: not shown
light: B1 light
notes: 620I-X0177-E01 with IgG C-terminal Lys deleted; also called 620I-R0052-E03; 620I-X180-E07
B9: X0122-A01 (bispecific antibody)
heavy: not shown
light: B1 light
notes: also called X122-A01
B10: X0120-A01 (bispecific antibody)
heavy: not shown
light: B1 light
notes: also called X120-A01
B11: X0121-E01 (bispecific antibody)
heavy: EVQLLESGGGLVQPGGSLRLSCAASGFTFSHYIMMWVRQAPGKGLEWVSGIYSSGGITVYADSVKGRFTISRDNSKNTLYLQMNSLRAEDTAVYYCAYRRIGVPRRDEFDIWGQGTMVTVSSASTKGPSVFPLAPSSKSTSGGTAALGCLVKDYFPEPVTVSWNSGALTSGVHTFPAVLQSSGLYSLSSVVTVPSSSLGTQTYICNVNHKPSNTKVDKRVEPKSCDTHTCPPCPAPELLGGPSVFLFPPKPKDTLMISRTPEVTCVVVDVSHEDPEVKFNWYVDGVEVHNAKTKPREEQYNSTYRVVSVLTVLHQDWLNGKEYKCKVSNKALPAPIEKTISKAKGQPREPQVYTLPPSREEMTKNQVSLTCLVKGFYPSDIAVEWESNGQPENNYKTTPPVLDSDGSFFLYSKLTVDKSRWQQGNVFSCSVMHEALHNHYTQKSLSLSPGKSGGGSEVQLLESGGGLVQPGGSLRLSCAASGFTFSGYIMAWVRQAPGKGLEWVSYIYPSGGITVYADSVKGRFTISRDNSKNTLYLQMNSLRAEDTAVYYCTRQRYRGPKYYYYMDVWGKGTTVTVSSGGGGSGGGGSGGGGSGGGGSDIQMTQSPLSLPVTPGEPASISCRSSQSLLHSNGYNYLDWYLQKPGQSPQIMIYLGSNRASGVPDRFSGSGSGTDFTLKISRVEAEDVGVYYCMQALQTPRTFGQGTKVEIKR
light: B1 light
notes: also called X121-E01
B12: 620I-X0142-B11 (bispecific antibody, human IgG1, kappa)
heavy: not shown
light: B1 light
notes: also called 620I-X142-B11
B13: 620I-X0138-B01 (bispecific antibody, human IgG1, kappa)
heavy: not shown
light: B1 light
notes: also called 620I-X138-B01
B14: 620I-X0139-E05 (bispecific antibody)
heavy: not shown
light: B1 light
notes: also called 620I-X139-E05
B15: 620I-X0142-B02 (bispecific antibody)
heavy: not shown
light: B1 light
notes: also called 620I-X142-B02
B16: 620I-X0138-G12 (bispecific antibody)
heavy: not shown
light: B1 light
notes: also called 620I-X138-G12
B17: 620I-X0142-A05 (bispecific antibody)
heavy: not shown
light: B1 light
notes: also called 620I-X142-A05
B18: 620I-X0138-A12 (bispecific antibody)
heavy: not shown
light: B1 light
notes: also called 620I-X138-A12
B19: 620I-X0138-B07 (bispecific antibody)
heavy: not shown
light: B1 light
notes: also called 620I-X138-B07
B20: 620I-X0138-F02 (bispecific antibody)
heavy: not shown
light: B1 light
notes: also called 620I-X138-F02
B21: 620I-X0138-C12 (bispecific antibody)
heavy: not shown
light: B1 light
notes: also called 620I-X138-C12
B22: 620I-X0139-A01 (bispecific antibody)
heavy: not shown
light: B1 light
notes: also called 620I-X139-A01
B23: 620I-X0138-D05 (bispecific antibody)
heavy: not shown
light: B1 light
notes: also called 620I-X138-D05
B24: 620I-X0138-D06 (bispecific antibody)
heavy: not shown
light: B1 light
notes: also called 620I-X138-D06
B25: 620I-X0139-A11 (bispecific antibody)
heavy: not shown
light: B1 light
notes: also called 620I-X139-A11
B26: 620I-X0138-B06 (bispecific antibody)
heavy: not shown
light: B1 light
notes: also called 620I-X138-B06
B27: 620I-X0142-A04 (bispecific antibody)
heavy: not shown
light: B1 light
notes: also called 620I-X142-A04
B28: 620I-X0138-D11 (bispecific antibody)
heavy: not shown
light: B1 light
notes: also called 620I-X138-D11
B29: 620I-X0139-A12 (bispecific antibody)
heavy: not shown
light: B1 light
notes: also called 620I-X139-A12
B30: 620I-X0142-E02 (bispecific antibody)
heavy: not shown
light: B1 light
notes: also called 620I-X142-E02
B31: 620I-X0138-C07 (bispecific antibody)
heavy: not shown
light: B1 light
notes: also called 620I-X138-C07
B32: 620I-X0139-G12 (bispecific antibody)
heavy: not shown
light: B1 light
notes: also called 620I-X139-G12
B33: 620I-X0139-B10 (bispecific antibody)
heavy: not shown
light: B1 light
notes: also called 620I-X139-B10
B34: 620I-X0142-B07 (bispecific antibody)
heavy: not shown
light: B1 light
notes: also called 620I-X142-B07
B35: 620I-X0138-D04 (bispecific antibody)
heavy: not shown
light: B1 light
notes: also called 620I-X138-D04
B36: 620I-X0138-D03 (bispecific antibody)
heavy: not shown
light: B1 light
notes: also called 620I-X138-D03
B37: 620I-X0142-A02 (bispecific antibody)
heavy: not shown
light: B1 light
notes: also called 620I-X142-A02
B38: 620I-X0138-B10 (bispecific antibody)
heavy: not shown
light: B1 light
notes: also called 620I-X138-B10
B39: 620I-X0139-D12 (bispecific antibody)
heavy: not shown
light: B1 light
notes: also called 620I-X139-D12
B40: 620I-X0138-E05 (bispecific antibody)
heavy: not shown
light: B1 light
notes: also called 620I-X138-E05
B41: 620I-X0138-F05 (bispecific antibody)
heavy: not shown
light: B1 light
notes: also called 620I-X138-F05
B42: 620I-X0142-D04 (bispecific antibody)
heavy: not shown
light: B1 light
notes: also called 620I-X142-D04
B43: 620I-X0138-E03 (bispecific antibody)
heavy: not shown
light: B1 light
notes: also called 620I-X138-E03

Biological target: T1, plasma kallikrein (pKal) (UniProt P03952 20-390; P03952 391-638, limits assumed)
T1 construct: the description speaks of human pKal; also called active pKal
T1 sequence (P03952 20-390 limits assumed, form in doubt, chain 1 of 2): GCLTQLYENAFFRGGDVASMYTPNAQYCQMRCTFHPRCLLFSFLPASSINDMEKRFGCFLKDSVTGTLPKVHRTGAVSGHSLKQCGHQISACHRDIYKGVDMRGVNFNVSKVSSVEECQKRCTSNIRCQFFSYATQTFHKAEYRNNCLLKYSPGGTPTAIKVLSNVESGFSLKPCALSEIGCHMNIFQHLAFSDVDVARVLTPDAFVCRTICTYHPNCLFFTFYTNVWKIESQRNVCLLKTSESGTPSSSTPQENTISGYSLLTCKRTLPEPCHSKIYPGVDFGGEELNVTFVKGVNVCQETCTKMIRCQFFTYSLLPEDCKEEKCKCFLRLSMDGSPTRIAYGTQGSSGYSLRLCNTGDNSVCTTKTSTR
T1 sequence (P03952 391-638 limits assumed, form in doubt, chain 2 of 2): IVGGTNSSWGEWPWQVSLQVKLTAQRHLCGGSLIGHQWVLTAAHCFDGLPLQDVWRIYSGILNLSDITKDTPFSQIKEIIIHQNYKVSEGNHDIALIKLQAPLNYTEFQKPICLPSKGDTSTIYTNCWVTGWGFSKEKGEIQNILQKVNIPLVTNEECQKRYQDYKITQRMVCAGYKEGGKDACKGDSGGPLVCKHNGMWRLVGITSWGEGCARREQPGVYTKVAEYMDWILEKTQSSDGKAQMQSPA
Assay: pKal enzyme inhibition, Ki,app

Binder | Ki
B1 | 0.243 nM
B2 | 0.203 nM
B3 | 0.208 nM
B4 | 0.254 nM
B5 | 0.226 nM
B6 | 0.232 nM
B7 | 0.225 nM
B8 | 0.243 nM

Biological target: T2, Factor XIIa (FXIIa) (UniProt P00748 20-372; P00748 373-615, limits assumed)
T2 construct: the description speaks of human FXIIa; also called active Factor XII
T2 sequence (looked up) 1: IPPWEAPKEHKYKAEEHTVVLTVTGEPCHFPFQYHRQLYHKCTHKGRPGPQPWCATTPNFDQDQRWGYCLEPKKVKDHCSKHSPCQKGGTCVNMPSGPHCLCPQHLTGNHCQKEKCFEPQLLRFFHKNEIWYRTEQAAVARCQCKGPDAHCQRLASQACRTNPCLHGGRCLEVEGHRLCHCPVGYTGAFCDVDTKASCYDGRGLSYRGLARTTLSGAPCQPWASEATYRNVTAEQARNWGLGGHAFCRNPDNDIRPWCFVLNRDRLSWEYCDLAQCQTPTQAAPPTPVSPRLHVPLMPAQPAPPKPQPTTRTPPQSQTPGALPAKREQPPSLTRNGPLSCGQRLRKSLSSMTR
T2 sequence (looked up) 2: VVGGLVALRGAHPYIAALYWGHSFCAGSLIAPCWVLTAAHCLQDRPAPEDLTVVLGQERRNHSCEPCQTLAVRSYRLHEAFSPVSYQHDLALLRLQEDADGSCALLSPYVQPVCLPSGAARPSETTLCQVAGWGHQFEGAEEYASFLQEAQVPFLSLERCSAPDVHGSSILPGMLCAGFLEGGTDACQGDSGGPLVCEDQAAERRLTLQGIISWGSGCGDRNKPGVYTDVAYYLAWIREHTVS
Assay: FXIIa enzyme inhibition, Ki,app

Binder | Ki
B1 | 0.108 nM
B2 | 0.099 nM
B3 | 0.071 nM
B4 | 0.116 nM
B5 | 0.052 nM
B6 | 0.14 nM
B7 | 0.09 nM
B8 | 0.092 nM

Biological target: T1, plasma kallikrein (pKal)
Assay: enzyme inhibition, peptide substrate, tight-binding fit, Ki,app
Procedure: (§1) Varying concentrations of the bispecific antibodies were incubated with individual FXIIa and pKal samples, and the ability of these proteases to cleave a peptide substrate was monitored over time by measuring changes in the fluorescence of a chemical moiety covalently attached to the peptide substrate. Slopes of this kinetic data are equivalent to enzymatic proteolytic rates, which are then plotted against the concentration of the inhibitor. The resulting plots are then fit to a tight binding inhibitor equation (Equation 1) by nonlinear regression to obtain apparent inhibition constants (Kᵢ^app).

Binder | Ki
B9 | 0.169 nM
B10 | 0.138 nM
B11 | 0.159 nM

Biological target: T2, Factor XIIa (FXIIa)
Assay: as above
Procedure: as §1

Binder | Ki
B9 | 6.05 nM
B10 | 0.0515 nM
B11 | 0.611 nM

Biological target: T1, plasma kallikrein (pKal)
Assay: enzyme inhibition, corrected Ki,app

Binder | Ki
B12 | 0.622 nM
B13 | 0.169 nM
B14 | 0.196 nM
B15 | 0.156 nM
B16 | 0.186 nM
B17 | 0.16 nM
B18 | 0.405 nM
B19 | 0.246 nM
B20 | 0.464 nM
B21 | 0.267 nM
B22 | 0.146 nM
B23 | 0.519 nM
B24 | 0.199 nM
B25 | 0.235 nM
B26 | 0.33 nM
B27 | 0.162 nM

Binder | Ki
B28 | 0.178 nM
B29 | 2.05 nM
B30 | 0.162 nM
B31 | 0.196 nM
B32 | 0.276 nM
B33 | 0.247 nM
B34 | 0.224 nM
B35 | 0.215 nM
B36 | 0.079 nM
B37 | 0.152 nM
B38 | 0.075 nM
B39 | 0.428 nM
B40 | 0.186 nM
B41 | 0.214 nM
B42 | 0.17 nM
B43 | 0.178 nM

Biological target: T2, Factor XIIa (FXIIa)
Assay: enzyme inhibition, corrected Ki,app

Binder | Ki
B12 | 7.72 nM
B13 | 6.63 nM
B14 | 0.172 nM
B15 | 0.955 nM
B16 | 0.766 nM
B17 | 2.14 nM
B18 | 1.93 nM
B19 | 0.135 nM
B20 | 0.794 nM
B21 | 0.697 nM
B22 | 0.053 nM
B23 | 0.139 nM
B24 | 0.132 nM
B25 | 3.83 nM
B26 | 0.405 nM
B27 | 1.23 nM

Binder | Ki
B28 | 0.443 nM
B29 | 4.08 nM
B30 | 0.186 nM
B31 | 0.314 nM
B32 | 0.252 nM
B33 | 0.189 nM
B34 | 0.775 nM
B35 | 0.079 nM
B36 | 0.344 nM
B37 | 0.063 nM
B38 | 0.058 nM
B39 | 0.383 nM
B40 | 0.245 nM
B41 | 0.147 nM
B42 | 0.414 nM
B43 | 0.122 nM
